Measured values as given in patent US20220040297A1 (Chugai, published 2022).

What follows are binders tested against T1, CD3ε homodimer protein (human, UniProt P07766 23-126, limits assumed, sulfo-tag or biotin label in some ECL assays) (assay: SPR, CD3ε homodimer on chip;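 further: biacore SPR with antibody variants flowed as analyte over amine-coupled CD3ε homodimer on a CM chip, bound amount of each single-residue H chain variant over that of parent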).
T1 construct: also called human CD3ε homodimer protein; CD3 (CD3ε)
T1 sequence (P07766 23-126 limits assumed): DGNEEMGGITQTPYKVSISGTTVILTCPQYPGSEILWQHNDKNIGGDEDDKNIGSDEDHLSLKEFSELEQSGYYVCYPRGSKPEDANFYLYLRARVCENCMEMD

ratio of amounts bound vs CE115HA000 | Binder
0.17 | CE115HA000 K52F (antibody, name in Kabat numbering, V domains shown) VH: QVQLVESGGGVVQPGRSLRLSCAASGFTFSNAWMHWVRQAPGKGLEWVAQIFAKSNNYATYYAESVKGRFTISRDDSKNSLYLQMNSLKTEDTAVYYCRYVHYGAYYGVDAWGQGTTVTVSS VL: DIVMTQSPLSLPVTPGEPASISCRSSQSLVHSNRNTYLHWYQQKPGQAPRLLIYKVSNRFSGVPDRFSGSGSGTDFTLKISRVEAEDVGVYYCGQGTQVPYTFGQGTKLEIK
0.27 | CE115HA000 K52bD (antibody, name in Kabat numbering, V domains shown) VH: QVQLVESGGGVVQPGRSLRLSCAASGFTFSNAWMHWVRQAPGKGLEWVAQIKADSNNYATYYAESVKGRFTISRDDSKNSLYLQMNSLKTEDTAVYYCRYVHYGAYYGVDAWGQGTTVTVSS VL: DIVMTQSPLSLPVTPGEPASISCRSSQSLVHSNRNTYLHWYQQKPGQAPRLLIYKVSNRFSGVPDRFSGSGSGTDFTLKISRVEAEDVGVYYCGQGTQVPYTFGQGTKLEIK
0.22 | CE115HA000 K52W (antibody, name in Kabat numbering, V domains shown) VH: QVQLVESGGGVVQPGRSLRLSCAASGFTFSNAWMHWVRQAPGKGLEWVAQIWAKSNNYATYYAESVKGRFTISRDDSKNSLYLQMNSLKTEDTAVYYCRYVHYGAYYGVDAWGQGTTVTVSS VL: DIVMTQSPLSLPVTPGEPASISCRSSQSLVHSNRNTYLHWYQQKPGQAPRLLIYKVSNRFSGVPDRFSGSGSGTDFTLKISRVEAEDVGVYYCGQGTQVPYTFGQGTKLEIK
0.33 | CE115HA000 K52I (antibody, name in Kabat numbering, V domains shown) VH: QVQLVESGGGVVQPGRSLRLSCAASGFTFSNAWMHWVRQAPGKGLEWVAQIIAKSNNYATYYAESVKGRFTISRDDSKNSLYLQMNSLKTEDTAVYYCRYVHYGAYYGVDAWGQGTTVTVSS VL: DIVMTQSPLSLPVTPGEPASISCRSSQSLVHSNRNTYLHWYQQKPGQAPRLLIYKVSNRFSGVPDRFSGSGSGTDFTLKISRVEAEDVGVYYCGQGTQVPYTFGQGTKLEIK
0.6 | CE115HA000 K52bQ (antibody, name in Kabat numbering, V domains shown) VH: QVQLVESGGGVVQPGRSLRLSCAASGFTFSNAWMHWVRQAPGKGLEWVAQIKAQSNNYATYYAESVKGRFTISRDDSKNSLYLQMNSLKTEDTAVYYCRYVHYGAYYGVDAWGQGTTVTVSS VL: DIVMTQSPLSLPVTPGEPASISCRSSQSLVHSNRNTYLHWYQQKPGQAPRLLIYKVSNRFSGVPDRFSGSGSGTDFTLKISRVEAEDVGVYYCGQGTQVPYTFGQGTKLEIK
0.27 | CE115HA000 K52bN (antibody, name in Kabat numbering, V domains shown) VH: QVQLVESGGGVVQPGRSLRLSCAASGFTFSNAWMHWVRQAPGKGLEWVAQIKANSNNYATYYAESVKGRFTISRDDSKNSLYLQMNSLKTEDTAVYYCRYVHYGAYYGVDAWGQGTTVTVSS VL: DIVMTQSPLSLPVTPGEPASISCRSSQSLVHSNRNTYLHWYQQKPGQAPRLLIYKVSNRFSGVPDRFSGSGSGTDFTLKISRVEAEDVGVYYCGQGTQVPYTFGQGTKLEIK
0.22 | CE115HA000 K52H (antibody, name in Kabat numbering, V domains shown) VH: QVQLVESGGGVVQPGRSLRLSCAASGFTFSNAWMHWVRQAPGKGLEWVAQIHAKSNNYATYYAESVKGRFTISRDDSKNSLYLQMNSLKTEDTAVYYCRYVHYGAYYGVDAWGQGTTVTVSS VL: DIVMTQSPLSLPVTPGEPASISCRSSQSLVHSNRNTYLHWYQQKPGQAPRLLIYKVSNRFSGVPDRFSGSGSGTDFTLKISRVEAEDVGVYYCGQGTQVPYTFGQGTKLEIK
0.61 | CE115HA000 K52bL (antibody, name in Kabat numbering, V domains shown) VH: QVQLVESGGGVVQPGRSLRLSCAASGFTFSNAWMHWVRQAPGKGLEWVAQIKALSNNYATYYAESVKGRFTISRDDSKNSLYLQMNSLKTEDTAVYYCRYVHYGAYYGVDAWGQGTTVTVSS VL: DIVMTQSPLSLPVTPGEPASISCRSSQSLVHSNRNTYLHWYQQKPGQAPRLLIYKVSNRFSGVPDRFSGSGSGTDFTLKISRVEAEDVGVYYCGQGTQVPYTFGQGTKLEIK
0.92 | CE115HA000 K52R (antibody, name in Kabat numbering, V domains shown) VH: QVQLVESGGGVVQPGRSLRLSCAASGFTFSNAWMHWVRQAPGKGLEWVAQIRAKSNNYATYYAESVKGRFTISRDDSKNSLYLQMNSLKTEDTAVYYCRYVHYGAYYGVDAWGQGTTVTVSS VL: DIVMTQSPLSLPVTPGEPASISCRSSQSLVHSNRNTYLHWYQQKPGQAPRLLIYKVSNRFSGVPDRFSGSGSGTDFTLKISRVEAEDVGVYYCGQGTQVPYTFGQGTKLEIK
0.18 | CE115HA000 K52Y (antibody, name in Kabat numbering, V domains shown) VH: QVQLVESGGGVVQPGRSLRLSCAASGFTFSNAWMHWVRQAPGKGLEWVAQIYAKSNNYATYYAESVKGRFTISRDDSKNSLYLQMNSLKTEDTAVYYCRYVHYGAYYGVDAWGQGTTVTVSS VL: DIVMTQSPLSLPVTPGEPASISCRSSQSLVHSNRNTYLHWYQQKPGQAPRLLIYKVSNRFSGVPDRFSGSGSGTDFTLKISRVEAEDVGVYYCGQGTQVPYTFGQGTKLEIK
1.11 | CE115HA000 K52bR (antibody, name in Kabat numbering, V domains shown) VH: QVQLVESGGGVVQPGRSLRLSCAASGFTFSNAWMHWVRQAPGKGLEWVAQIKARSNNYATYYAESVKGRFTISRDDSKNSLYLQMNSLKTEDTAVYYCRYVHYGAYYGVDAWGQGTTVTVSS VL: DIVMTQSPLSLPVTPGEPASISCRSSQSLVHSNRNTYLHWYQQKPGQAPRLLIYKVSNRFSGVPDRFSGSGSGTDFTLKISRVEAEDVGVYYCGQGTQVPYTFGQGTKLEIK
0.28 | CE115HA000 K52S (antibody, name in Kabat numbering, V domains shown) VH: QVQLVESGGGVVQPGRSLRLSCAASGFTFSNAWMHWVRQAPGKGLEWVAQISAKSNNYATYYAESVKGRFTISRDDSKNSLYLQMNSLKTEDTAVYYCRYVHYGAYYGVDAWGQGTTVTVSS VL: DIVMTQSPLSLPVTPGEPASISCRSSQSLVHSNRNTYLHWYQQKPGQAPRLLIYKVSNRFSGVPDRFSGSGSGTDFTLKISRVEAEDVGVYYCGQGTQVPYTFGQGTKLEIK
0.67 | CE115HA000 K52bA (antibody, name in Kabat numbering, V domains shown) VH: QVQLVESGGGVVQPGRSLRLSCAASGFTFSNAWMHWVRQAPGKGLEWVAQIKAASNNYATYYAESVKGRFTISRDDSKNSLYLQMNSLKTEDTAVYYCRYVHYGAYYGVDAWGQGTTVTVSS VL: DIVMTQSPLSLPVTPGEPASISCRSSQSLVHSNRNTYLHWYQQKPGQAPRLLIYKVSNRFSGVPDRFSGSGSGTDFTLKISRVEAEDVGVYYCGQGTQVPYTFGQGTKLEIK
0.68 | CE115HA000 K52bS (antibody, name in Kabat numbering, V domains shown) VH: QVQLVESGGGVVQPGRSLRLSCAASGFTFSNAWMHWVRQAPGKGLEWVAQIKASSNNYATYYAESVKGRFTISRDDSKNSLYLQMNSLKTEDTAVYYCRYVHYGAYYGVDAWGQGTTVTVSS VL: DIVMTQSPLSLPVTPGEPASISCRSSQSLVHSNRNTYLHWYQQKPGQAPRLLIYKVSNRFSGVPDRFSGSGSGTDFTLKISRVEAEDVGVYYCGQGTQVPYTFGQGTKLEIK
0.34 | CE115HA000 K52N (antibody, name in Kabat numbering, V domains shown) VH: QVQLVESGGGVVQPGRSLRLSCAASGFTFSNAWMHWVRQAPGKGLEWVAQINAKSNNYATYYAESVKGRFTISRDDSKNSLYLQMNSLKTEDTAVYYCRYVHYGAYYGVDAWGQGTTVTVSS VL: DIVMTQSPLSLPVTPGEPASISCRSSQSLVHSNRNTYLHWYQQKPGQAPRLLIYKVSNRFSGVPDRFSGSGSGTDFTLKISRVEAEDVGVYYCGQGTQVPYTFGQGTKLEIK
